Data published in the supplement of paper PMC10724198.
± gives the standard deviation of the averaged measurements.

Test system: Saccharomyces cerevisiae
Assay: protein stability index of tFT-peptide fusion (C-terminal peptide) (PSI (0-1 scale)); higher = more stable (slower turnover)
Conditions: genetic background: wild type; temperature: 30 C
Description: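 Multiplexed protein stability (MPS) profiling in S. cerevisiae. Random 12-aa peptides (tFT-X12 library) are fused to the C-terminus of a sfGFP-mCherry tandem fluorescent timer, after mCherry and a GGGS linker. Cells are FACS-sorted into 8 mCherry/sfGFP bins and deep-sequenced. The protein stability index (PSI) is the read-weighted bin average, scaled from 0 (unstable) to 1 (stable). Only peptides with >10 reads are reported; cells were grown at 30 °C in SC-His with glucose.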
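Also: PSI is a weighted mean of sequencing reads over stability bins, variants kept only with over 10 reads, mCherry proximal and sfGFP distal, peptide attached via GGGS linker.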

| Sequence | protein stability index |
| --- | --- |
| KIRDECFQPVNR | 0.674 ± 0.059 |
| KIYLKDKKKSKK | 0.668 ± 0.057 |
| KKAKRKHLLGRA | 0.66 ± 0.017 |
| KKDTTRGENYKP | 0.767 ± 0.016 |
| KKEGKTKSIRKK | 0.726 ± 0.013 |
| KKEKRQQEKIIK | 0.671 ± 0.04 |
| KKEQKKKNKNDR | 0.669 ± 0.025 |
| KKGREKKQQKER | 0.717 ± 0.015 |
| KKHKKEDNKEKK | 0.708 ± 0.051 |
| KKIKKKKQTKRK | 0.662 ± 0.039 |
| KKIKKKQTTLKR | 0.665 ± 0.081 |
| KKILNKEKSKMA | 0.7181 ± 0.0049 |
| KKIRSMRREGQR | 0.714 ± 0.08 |
| KKKEHQKIKNER | 0.675 ± 0.032 |
| KKKHIRTEKDNK | 0.704 ± 0.014 |
| KKKIINEKKKKD | 0.70019 ± 0.00067 |
| KKKKAKKIKKQK | 0.675 ± 0.059 |
| KKKKEEKKKSKK | 0.644 ± 0.041 |
| KKKKIKIKKKKI | 0.763 ± 0.043 |
| KKKKIKKKEKNK | 0.716 ± 0.079 |
| KKKKIKKKKINI | 0.597 ± 0.0067 |
| KKKKKKKETKKR | 0.661 ± 0.047 |
| KKKKKKKKKKKR | 0.633 ± 0.009 |
| KKKKKKKKKKPK | 0.611 ± 0.022 |
| KKKKKKKKQEQN | 0.63076 ± 3e-05 |

| Sequence | protein stability index |
| --- | --- |
| KKKKKKKKRNRK | 0.666 ± 0.018 |
| KKKKKKKSTKRN | 0.713 ± 0.037 |
| KKKKKKNTHNTK | 0.646 ± 0.07 |
| KKKKKKRYRKKI | 0.605 ± 0.024 |
| KKKKKNNKRQKQ | 0.593 ± 0.089 |
| KKKKLKQKKNKQ | 0.655 ± 0.008 |
| KKKKNNKKKQRT | 0.731 ± 0.027 |
| KKKKQIKKTKKK | 0.701 ± 0.047 |
| KKKKQKKRETTK | 0.636 ± 0.012 |
| KKKKQKNNRKKP | 0.574 ± 0.059 |
| KKKKRKGKRQPR | 0.671 ± 0.041 |
| KKKKRKKKKINI | 0.611 ± 0.038 |
| KKKKRQNIQNKK | 0.692 ± 0.054 |
| KKKLEIKIEKRE | 0.644 ± 0.042 |
| KKKNKKEDKRKK | 0.6942 ± 0.0031 |
| KKKNKKKQKEEK | 0.693 ± 0.012 |
| KKKNKKKRKGRK | 0.684 ± 0.037 |
| KKKNKKNKKKAE | 0.6915 ± 0.0047 |
| KKKQNVKSNEVG | 0.651 ± 0.096 |
| KKKRKEEIKKKK | 0.742 ± 0.012 |
| KKKRKKKQKIRK | 0.731 ± 0.08 |
| KKKTIKKTIKNQ | 0.702 ± 0.031 |
| KKKTKEKTRKKK | 0.702 ± 0.016 |
| KKKTKRKQKIET | 0.727 ± 0.022 |
| KKNKKKKIKMNK | 0.713 ± 0.038 |

| Sequence | protein stability index |
| --- | --- |
| KKNKKKRRAQKE | 0.669 ± 0.044 |
| KKNKKPKKQNNK | 0.681 ± 0.063 |
| KKNKNLTYKRMI | 0.716 ± 0.029 |
| KKNKRKLKKKKK | 0.72 ± 0.087 |
| KKNLHEQIGEAI | 0.687 ± 0.051 |
| KKNTKKKQVNQE | 0.747 ± 0.05 |
| KKPVNINNKLSA | 0.647 ± 0.017 |
| KKQKKKPQNKKK | 0.954 ± 0.066 |
| KKQKKWQSNTIR | 0.696 ± 0.034 |
| KKQKRRKGEREK | 0.637 ± 0.0023 |
| KKQQKKKNKNDR | 0.651 ± 0.017 |
| KKRKVKKKKPNG | 0.581 ± 0.033 |
| KKRYYNKKINEK | 0.699 ± 0.046 |
| KKSDTKKKGQNK | 0.673 ± 0.048 |
| KKSGTRDKNIQH | 0.676 ± 0.046 |
| KKSKKHEKKKNK | 0.711 ± 0.065 |
| KKTGITTNIKRW | 0.741 ± 0.23 |
| KKTITNNCPSYD | 0.6638 ± 0.0066 |
| KKTKKKKNKKQE | 0.716 ± 0.081 |
| KKTTKRKKEKQK | 0.633 ± 0.07 |
| KKVDLEDQRKER | 0.745 ± 0.008 |
| KLILGGSRGIMD | 0.646 ± 0.014 |
| KLNDTLKDRQNK | 0.67 ± 0.037 |
| KLNVRATPPPTI | 0.7 ± 0.055 |
| KLQKKTRQKKKK | 0.653 ± 0.035 |

| Sequence | protein stability index |
| --- | --- |
| KLRETQIHQGKT | 0.698 ± 0.021 |
| KLVGSLLSPDSE | 0.724 ± 0.015 |
| KMGKIQKVKGIK | 0.731 ± 0.012 |
| KMTSLSRVDIEE | 0.668 ± 0.087 |
| KMYILKGKIRKI | 0.612 ± 0.057 |
| KNCARIKERKDV | 0.627 ± 0.03 |
| KNEGYHNVTMNL | 0.707 ± 0.017 |
| KNKGKHKGGKYR | 0.721 ± 0.059 |
| KNKIKITKRKRK | 0.734 ± 0.0099 |
| KNKKKNQIENRT | 0.692 ± 0.0014 |
| KNQKTTKKKKKI | 0.543 ± 0.019 |
| KNSKKKKLKIER | 0.804 ± 0.27 |
| KNSLIKTKESRK | 0.6947 ± 0.0021 |
| KNVILKKNKNWL | 0.6746 ± 0.0063 |
| KPLPSHYPGRTP | 0.658 ± 0.016 |
| KPRSRMHRIVRI | 0.722 ± 0.027 |
| KPRTLRPDQNAT | 0.689 ± 0.0087 |
| KQDIETDKKEEG | 0.666 ± 0.13 |
| KQFGIHSRVFLM | 0.547 ± 0.021 |
| KQKNSNKKTQRI | 0.712 ± 0.021 |
| KQKTSRGTGQSL | 0.683 ± 0.1 |
| KQNRKEKVQRNR | 0.709 ± 0.054 |
| KQQTPVQNKDLR | 0.71399 ± 0.0006 |
| KQSNRYPCIHRS | 0.705 ± 0.048 |
| KRCTFCGGGWVM | 0.7276 ± 0.00082 |

| Sequence | protein stability index |
| --- | --- |
| KREGEGLDWGEV | 0.7089 ± 0.0014 |
| KREQGPRPRACR | 0.617 ± 0.036 |
| KRGKRTEKDKET | 0.652 ± 0.071 |
| KRKEDSILVISC | 0.662 ± 0.029 |
| KRKERKGEKKRR | 0.685 ± 0.033 |
| KRKKKENNKIKI | 0.756 ± 0.1 |
| KRKKKRKQKGKQ | 0.722 ± 0.036 |
| KRKKNKKRKQNE | 0.656 ± 0.026 |
| KRKKTRNKNGKG | 0.627 ± 0.073 |
| KRKPEHKSAAEE | 0.669 ± 0.038 |
| KRKRAVQYLMQP | 0.615 ± 0.042 |
| KRLKKKKQSGGK | 0.71 ± 0.03 |
| KRRSQKKKRIMD | 0.6968 ± 0.0043 |
| KRTKKKTKDERK | 0.644 ± 0.044 |
| KRYSVPLTTVVD | 0.7165 ± 0.0035 |
| KSSEIKEKKTKK | 0.7151 ± 0.0011 |
| KSSNIINQKRIT | 0.66 ± 0.056 |
| KSSTLRKIKRGK | 0.716 ± 0.03 |
| KTCENKKKALRR | 0.6923 ± 0.0016 |
| KTGRPSRRGSTT | 0.704 ± 0.036 |
| KTGVRAVSLTGS | 0.696 ± 0.038 |
| KTHKKKKKNKNF | 0.525 ± 0.012 |
| KTINEKKKRIEQ | 0.713 ± 0.055 |
| KTIQDNNYDGIW | 0.766 ± 0.25 |
| KTKKNKKKKINK | 0.692 ± 0.075 |

| Sequence | protein stability index |
| --- | --- |
| KTKRKKKRRRRE | 0.705 ± 0.067 |
| KTQKKPNNRKNI | 0.682 ± 0.04 |
| KTRHVGSDNQGL | 0.663 ± 0.043 |
| KVAECGYGTSWV | 0.724 ± 0.013 |
| KVCESRQVEYFR | 0.634 ± 0.088 |
| KVCVLSPDSCGL | 0.741 ± 0.033 |
| KVGLGVNSLFTG | 0.745 ± 0.18 |
| KVKGKSISKINH | 0.645 ± 0.055 |
| KVLTTISRAINK | 0.604 ± 0.012 |
| KVRDTFRDFGLM | 0.673 ± 0.063 |
| KYMPKDSLKNTI | 0.622 ± 0.01 |
| KYPRPNSYFVPI | 0.717 ± 0.023 |
| LAARTKAQARHN | 0.652 ± 0.04 |
| LACVYEVIPGPS | 0.677 ± 0.047 |
| LACWAGVLGWGG | 0.732 ± 0.022 |
| LAESTSYNQRRP | 0.701 ± 0.06 |
| LAGGRCGCGTHD | 0.684 ± 0.042 |
| LAGLAVASVRRE | 0.683 ± 0.013 |
| LAGRPSTTRAFR | 0.59 ± 0.027 |
| LALFPDPSSIIL | 0.7765 ± 0.0075 |
| LALHWVESRFKH | 0.71 ± 0.06 |
| LALSVRFFSVLF | 0.587 ± 0.036 |
| LALVGGACVGRV | 0.65 ± 0.044 |
| LANGACLLRLNF | 0.54 ± 0.017 |
| LAPLALPLPPPT | 0.832 ± 0.18 |

| Sequence | protein stability index |
| --- | --- |
| LAPPPLGNSSRP | 0.704 ± 0.049 |
| LARGGASIGGES | 0.701 ± 0.015 |
| LARPPPPSNHSP | 0.695 ± 0.0094 |
| LASCAFQFLASC | 0.691 ± 0.098 |
| LASGSVSCFWSG | 0.71 ± 0.021 |
| LASSGQSWLVVF | 0.563 ± 0.011 |
| LASSSPPTRPPH | 0.702 ± 0.048 |
| LASVSNFLASGK | 0.72 ± 0.058 |
| LAVNGEIERVCD | 0.636 ± 0.11 |
| LAWALGESSPIG | 0.737 ± 0.044 |
| LAYCGSTYVSRH | 0.699 ± 0.022 |
| LCANDRGVAALA | 0.683 ± 0.046 |
| LCCSFGLFTLFW | 0.711 ± 0.042 |
| LCHCLSLLFSFL | 0.581 ± 0.015 |
| LCLFPLVTPPPA | 0.607 ± 0.029 |
| LCLGFDGAFPLF | 0.725 ± 0.014 |
| LCPTGAPLYFSL | 0.64 ± 0.093 |
| LCRSSIILTLLL | 0.586 ± 0.057 |
| LCSPGPLPPSYF | 0.705 ± 0.045 |
| LCVGVGAAIRLW | 0.598 ± 0.039 |
| LDCVPRTHCILS | 0.664 ± 0.074 |
| LDEFFIKTSANM | 0.652 ± 0.088 |
| LDGSQDGANRRT | 0.728 ± 0.095 |
| LDLCTVIRFVGI | 0.723 ± 0.029 |
| LDRDTSCYMLDF | 0.718 ± 0.03 |

| Sequence | protein stability index |
| --- | --- |
| LDSGQALLSIPI | 0.643 ± 0.12 |
| LEGEESISQMNE | 0.664 ± 0.043 |
| LEQAGFWWPKGL | 0.764 ± 0.0087 |
| LEVLGVPQLIRS | 0.534 ± 0.07 |
| LEWHRPLCPPLF | 0.734 ± 0.075 |
| LFCGALSTRLAR | 0.751 ± 0.081 |
| LFCVARARLGCW | 0.768 ± 0.026 |
| LFERSFSSHPVL | 0.769 ± 0.13 |
| LFFLPSVLPFHC | 0.636 ± 0.025 |
| LFFSLLCSSFGS | 0.708 ± 0.022 |
| LFGFSPAPVSFG | 0.733 ± 0.073 |
| LFHPPVCPVFLD | 0.758 ± 0.037 |
| LFIGFFGIECFI | 0.5798 ± 0.0037 |
| LFILSLGEYSLP | 0.673 ± 0.066 |
| LFKRTWRVEGFG | 0.705 ± 0.094 |
| LFLDSTSTLPAP | 0.662 ± 0.028 |
| LFPFPSPLPPPL | 0.766 ± 0.0092 |
| LFPPFPPFSFSP | 0.798 ± 0.045 |
| LFPPRVSLPSHT | 0.663 ± 0.13 |
| LFPSPFVASFPP | 0.765 ± 0.055 |
| LFSCLHCLFSCQ | 0.616 ± 0.091 |
